Data from the supplement of paper PMC9112550, “Optimization of the antimicrobial peptide Bac7 by deep mutational scanning” (BMC Biology, 2022).

Tested on: Escherichia coli TOP10
Assay: shrunken log2 fold change of peptide-encoding DNA abundance (4.5 h post-induction vs induction); higher = less antimicrobial activity (less host growth inhibition)
Conditions: time post-induction: 4.5 h; library: site-saturation at positions 5, 18, 19, 20
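Further: peptides expressed intracellularly from a pBAD plasmid library in pooled LB shake-flask culture, induced with 0.3% L-arabinose, DNA abundance read by NGS, three biological replicates, DESeq2 with apeglm shrinkage.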

## RRIRLRPPRLPRPRPRPSWYPRP
  shrunken log2 fold change: -0.294

## RRIRLRPPRLPRPRPRPSYEPRP
  shrunken log2 fold change: -0.496

## RRIRLRPPRLPRPRPRPTADPRP
  shrunken log2 fold change: 0.346

## RRIRLRPPRLPRPRPRPTANPRP
  shrunken log2 fold change: 0.329

## RRIRLRPPRLPRPRPRPTEKPRP
  shrunken log2 fold change: -0.0343

## RRIRLRPPRLPRPRPRPTFTPRP
  shrunken log2 fold change: -0.346

## RRIRLRPPRLPRPRPRPTGEPRP
  shrunken log2 fold change: 0.205

## RRIRLRPPRLPRPRPRPTGVPRP
  shrunken log2 fold change: -0.0506

## RRIRLRPPRLPRPRPRPTHGPRP
  shrunken log2 fold change: 0.213

## RRIRLRPPRLPRPRPRPTILPRP
  shrunken log2 fold change: 0.0347

## RRIRLRPPRLPRPRPRPTKHPRP
  shrunken log2 fold change: -0.14

## RRIRLRPPRLPRPRPRPTKKPRP
  shrunken log2 fold change: 0.12

## RRIRLRPPRLPRPRPRPTKPPRP
  shrunken log2 fold change: 0.0884

## RRIRLRPPRLPRPRPRPTKRPRP
  shrunken log2 fold change: 0.00619

## RRIRLRPPRLPRPRPRPTLGPRP
  shrunken log2 fold change: 0.222

## RRIRLRPPRLPRPRPRPTMQPRP
  shrunken log2 fold change: -0.0477

## RRIRLRPPRLPRPRPRPTNGPRP
  shrunken log2 fold change: 0.129

## RRIRLRPPRLPRPRPRPTNVPRP
  shrunken log2 fold change: -0.165

## RRIRLRPPRLPRPRPRPTPIPRP
  shrunken log2 fold change: 0.3

## RRIRLRPPRLPRPRPRPTQGPRP
  shrunken log2 fold change: 0.852

## RRIRLRPPRLPRPRPRPTRVPRP
  shrunken log2 fold change: 0.389

## RRIRLRPPRLPRPRPRPTRWPRP
  shrunken log2 fold change: 0.456

## RRIRLRPPRLPRPRPRPTSLPRP
  shrunken log2 fold change: -0.112

## RRIRLRPPRLPRPRPRPTTAPRP
  shrunken log2 fold change: 0.115

## RRIRLRPPRLPRPRPRPTTCPRP
  shrunken log2 fold change: 0.0385

## RRIRLRPPRLPRPRPRPTTHPRP
  shrunken log2 fold change: -0.102

## RRIRLRPPRLPRPRPRPTTIPRP
  shrunken log2 fold change: 0.255

## RRIRLRPPRLPRPRPRPTTQPRP
  shrunken log2 fold change: 0.216

## RRIRLRPPRLPRPRPRPTVAPRP
  shrunken log2 fold change: 0.0307

## RRIRLRPPRLPRPRPRPTVSPRP
  shrunken log2 fold change: 0.0646

## RRIRLRPPRLPRPRPRPTWCPRP
  shrunken log2 fold change: 0.107

## RRIRLRPPRLPRPRPRPTYMPRP
  shrunken log2 fold change: -0.469

## RRIRLRPPRLPRPRPRPVCCPRP
  shrunken log2 fold change: -0.185

## RRIRLRPPRLPRPRPRPVCNPRP
  shrunken log2 fold change: -0.0299

## RRIRLRPPRLPRPRPRPVDCPRP
  shrunken log2 fold change: -0.456

## RRIRLRPPRLPRPRPRPVDDPRP
  shrunken log2 fold change: -0.219

## RRIRLRPPRLPRPRPRPVDKPRP
  shrunken log2 fold change: -0.138

## RRIRLRPPRLPRPRPRPVGKPRP
  shrunken log2 fold change: -0.0227

## RRIRLRPPRLPRPRPRPVHWPRP
  shrunken log2 fold change: 0.4

## RRIRLRPPRLPRPRPRPVKCPRP
  shrunken log2 fold change: -0.122

## RRIRLRPPRLPRPRPRPVKPPRP
  shrunken log2 fold change: 0.0377

## RRIRLRPPRLPRPRPRPVLFPRP
  shrunken log2 fold change: -0.0101

## RRIRLRPPRLPRPRPRPVLNPRP
  shrunken log2 fold change: -0.325

## RRIRLRPPRLPRPRPRPVPHPRP
  shrunken log2 fold change: -0.128

## RRIRLRPPRLPRPRPRPVRYPRP
  shrunken log2 fold change: -0.162

## RRIRLRPPRLPRPRPRPVSAPRP
  shrunken log2 fold change: 0.0663

## RRIRLRPPRLPRPRPRPVSDPRP
  shrunken log2 fold change: 0.128

## RRIRLRPPRLPRPRPRPVSLPRP
  shrunken log2 fold change: -0.0897

## RRIRLRPPRLPRPRPRPVSQPRP
  shrunken log2 fold change: 0.0349

## RRIRLRPPRLPRPRPRPVTLPRP
  shrunken log2 fold change: -0.751

## RRIRLRPPRLPRPRPRPVTTPRP
  shrunken log2 fold change: -0.216

## RRIRLRPPRLPRPRPRPVVHPRP
  shrunken log2 fold change: 0.93

## RRIRLRPPRLPRPRPRPVVWPRP
  shrunken log2 fold change: 0.547

## RRIRLRPPRLPRPRPRPVYTPRP
  shrunken log2 fold change: -0.0286

## RRIRLRPPRLPRPRPRPWCEPRP
  shrunken log2 fold change: -0.271

## RRIRLRPPRLPRPRPRPWDHPRP
  shrunken log2 fold change: -1.04

## RRIRLRPPRLPRPRPRPWDWPRP
  shrunken log2 fold change: 0.185

## RRIRLRPPRLPRPRPRPWFKPRP
  shrunken log2 fold change: -0.86

## RRIRLRPPRLPRPRPRPWGCPRP
  shrunken log2 fold change: 0.0644

## RRIRLRPPRLPRPRPRPWHPPRP
  shrunken log2 fold change: -0.0174

## RRIRLRPPRLPRPRPRPWILPRP
  shrunken log2 fold change: -0.0709

## RRIRLRPPRLPRPRPRPWITPRP
  shrunken log2 fold change: -0.028

## RRIRLRPPRLPRPRPRPWIWPRP
  shrunken log2 fold change: -0.0106

## RRIRLRPPRLPRPRPRPWKFPRP
  shrunken log2 fold change: -0.00232

## RRIRLRPPRLPRPRPRPWKGPRP
  shrunken log2 fold change: 0.0434

## RRIRLRPPRLPRPRPRPWLFPRP
  shrunken log2 fold change: 0.193

## RRIRLRPPRLPRPRPRPWNWPRP
  shrunken log2 fold change: 0.0524

## RRIRLRPPRLPRPRPRPWPKPRP
  shrunken log2 fold change: -0.0141

## RRIRLRPPRLPRPRPRPWRDPRP
  shrunken log2 fold change: -0.252

## RRIRLRPPRLPRPRPRPWTHPRP
  shrunken log2 fold change: -0.207

## RRIRLRPPRLPRPRPRPWTKPRP
  shrunken log2 fold change: -0.139

## RRIRLRPPRLPRPRPRPWTPPRP
  shrunken log2 fold change: -0.191

## RRIRLRPPRLPRPRPRPWTYPRP
  shrunken log2 fold change: 0.0062

## RRIRLRPPRLPRPRPRPWWLPRP
  shrunken log2 fold change: -0.0334

## RRIRLRPPRLPRPRPRPYAQPRP
  shrunken log2 fold change: -0.599

## RRIRLRPPRLPRPRPRPYCGPRP
  shrunken log2 fold change: -0.0687

## RRIRLRPPRLPRPRPRPYEGPRP
  shrunken log2 fold change: 0.0285

## RRIRLRPPRLPRPRPRPYETPRP
  shrunken log2 fold change: -0.0853

## RRIRLRPPRLPRPRPRPYFSPRP
  shrunken log2 fold change: -0.39

## RRIRLRPPRLPRPRPRPYFVPRP
  shrunken log2 fold change: -0.65

## RRIRLRPPRLPRPRPRPYGDPRP
  shrunken log2 fold change: -0.0122

## RRIRLRPPRLPRPRPRPYGEPRP
  shrunken log2 fold change: -0.0013

## RRIRLRPPRLPRPRPRPYGFPRP
  shrunken log2 fold change: 0.00785

## RRIRLRPPRLPRPRPRPYGVPRP
  shrunken log2 fold change: -0.107

## RRIRLRPPRLPRPRPRPYHMPRP
  shrunken log2 fold change: -0.146

## RRIRLRPPRLPRPRPRPYPFPRP
  shrunken log2 fold change: -0.137

## RRIRLRPPRLPRPRPRPYPMPRP
  shrunken log2 fold change: 0.00832

## RRIRLRPPRLPRPRPRPYPNPRP
  shrunken log2 fold change: -1.27

## RRIRLRPPRLPRPRPRPYPSPRP
  shrunken log2 fold change: 0.085

## RRIRLRPPRLPRPRPRPYQFPRP
  shrunken log2 fold change: -0.0128

## RRIRLRPPRLPRPRPRPYQMPRP
  shrunken log2 fold change: -0.188

## RRIRLRPPRLPRPRPRPYRKPRP
  shrunken log2 fold change: -0.262

## RRIRLRPPRLPRPRPRPYSQPRP
  shrunken log2 fold change: -0.0787

## RRIRLRPPRLPRPRPRPYTGPRP
  shrunken log2 fold change: -0.125

## RRIRLRPPRLPRPRPRPYTTPRP
  shrunken log2 fold change: -0.488

## RRIRLRPPRLPRPRPRPYWCPRP
  shrunken log2 fold change: -0.00992

## RRIRLRPPRLPRPRPRPYYTPRP
  shrunken log2 fold change: -0.76

## RRIRMRPPRLPRPRPRPAALPRP
  shrunken log2 fold change: 0.292

## RRIRMRPPRLPRPRPRPADGPRP
  shrunken log2 fold change: 0.19

## RRIRMRPPRLPRPRPRPADLPRP
  shrunken log2 fold change: 0.752

## RRIRMRPPRLPRPRPRPADYPRP
  shrunken log2 fold change: 0.0259

## RRIRMRPPRLPRPRPRPAFRPRP
  shrunken log2 fold change: 0.214

## RRIRMRPPRLPRPRPRPAFVPRP
  shrunken log2 fold change: 0.233

## RRIRMRPPRLPRPRPRPAFYPRP
  shrunken log2 fold change: -0.0165

## RRIRMRPPRLPRPRPRPAGWPRP
  shrunken log2 fold change: 1.37

## RRIRMRPPRLPRPRPRPAHQPRP
  shrunken log2 fold change: 0.397

## RRIRMRPPRLPRPRPRPAIIPRP
  shrunken log2 fold change: 0.0113

## RRIRMRPPRLPRPRPRPAKDPRP
  shrunken log2 fold change: 0.042

## RRIRMRPPRLPRPRPRPAKGPRP
  shrunken log2 fold change: 0.271

## RRIRMRPPRLPRPRPRPAKIPRP
  shrunken log2 fold change: 0.211

## RRIRMRPPRLPRPRPRPALNPRP
  shrunken log2 fold change: 0.759

## RRIRMRPPRLPRPRPRPAMHPRP
  shrunken log2 fold change: 2.86

## RRIRMRPPRLPRPRPRPAPEPRP
  shrunken log2 fold change: 0.874

## RRIRMRPPRLPRPRPRPAPTPRP
  shrunken log2 fold change: 1.13

## RRIRMRPPRLPRPRPRPAQAPRP
  shrunken log2 fold change: 0.107

## RRIRMRPPRLPRPRPRPAQGPRP
  shrunken log2 fold change: 3.7

## RRIRMRPPRLPRPRPRPAQMPRP
  shrunken log2 fold change: -0.0763

## RRIRMRPPRLPRPRPRPAQVPRP
  shrunken log2 fold change: -0.0213

## RRIRMRPPRLPRPRPRPARVPRP
  shrunken log2 fold change: 1.28

## RRIRMRPPRLPRPRPRPASFPRP
  shrunken log2 fold change: 0.126

## RRIRMRPPRLPRPRPRPASPPRP
  shrunken log2 fold change: 0.14

## RRIRMRPPRLPRPRPRPATCPRP
  shrunken log2 fold change: 0.398

## RRIRMRPPRLPRPRPRPATKPRP
  shrunken log2 fold change: 0.103

## RRIRMRPPRLPRPRPRPATLPRP
  shrunken log2 fold change: 0.132

## RRIRMRPPRLPRPRPRPATPPRP
  shrunken log2 fold change: 1.24

## RRIRMRPPRLPRPRPRPAVYPRP
  shrunken log2 fold change: 0.265

## RRIRMRPPRLPRPRPRPAWFPRP
  shrunken log2 fold change: 0.634

## RRIRMRPPRLPRPRPRPAYKPRP
  shrunken log2 fold change: 0.0601

## RRIRMRPPRLPRPRPRPAYSPRP
  shrunken log2 fold change: -0.166

## RRIRMRPPRLPRPRPRPCCNPRP
  shrunken log2 fold change: -0.00151

## RRIRMRPPRLPRPRPRPCDHPRP
  shrunken log2 fold change: 0.00316

## RRIRMRPPRLPRPRPRPCDWPRP
  shrunken log2 fold change: 0.179

## RRIRMRPPRLPRPRPRPCFVPRP
  shrunken log2 fold change: -0.103

## RRIRMRPPRLPRPRPRPCGEPRP
  shrunken log2 fold change: 0.967

## RRIRMRPPRLPRPRPRPCGMPRP
  shrunken log2 fold change: 0.134

## RRIRMRPPRLPRPRPRPCHNPRP
  shrunken log2 fold change: -0.355

## RRIRMRPPRLPRPRPRPCIGPRP
  shrunken log2 fold change: 0.0503

## RRIRMRPPRLPRPRPRPCIMPRP
  shrunken log2 fold change: -0.533

## RRIRMRPPRLPRPRPRPCKFPRP
  shrunken log2 fold change: 0.12

## RRIRMRPPRLPRPRPRPCLWPRP
  shrunken log2 fold change: 0.0121

## RRIRMRPPRLPRPRPRPCMAPRP
  shrunken log2 fold change: 0.59

## RRIRMRPPRLPRPRPRPCPLPRP
  shrunken log2 fold change: -0.0594

## RRIRMRPPRLPRPRPRPCQGPRP
  shrunken log2 fold change: -0.168

## RRIRMRPPRLPRPRPRPCRAPRP
  shrunken log2 fold change: 0.496

## RRIRMRPPRLPRPRPRPCRFPRP
  shrunken log2 fold change: -0.0352

## RRIRMRPPRLPRPRPRPCRTPRP
  shrunken log2 fold change: -0.129

## RRIRMRPPRLPRPRPRPCSEPRP
  shrunken log2 fold change: 0.514

## RRIRMRPPRLPRPRPRPCVSPRP
  shrunken log2 fold change: -0.0589

## RRIRMRPPRLPRPRPRPDAQPRP
  shrunken log2 fold change: 2.65

## RRIRMRPPRLPRPRPRPDARPRP
  shrunken log2 fold change: -0.0547
